Like-named read-outs stand apart in the source and are kept apart here.
T1: Human TIGIT expressed on the surface of cells (human, UniProt Q495A1 22-244)
T1 sequence: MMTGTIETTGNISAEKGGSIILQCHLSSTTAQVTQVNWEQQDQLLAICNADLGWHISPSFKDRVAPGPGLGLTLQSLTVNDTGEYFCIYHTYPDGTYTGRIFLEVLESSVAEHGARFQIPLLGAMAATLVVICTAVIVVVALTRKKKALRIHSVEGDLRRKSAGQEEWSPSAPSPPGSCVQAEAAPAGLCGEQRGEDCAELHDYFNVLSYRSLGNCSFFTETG

T2: Mouse TIGIT-his (ACRO, TIT-M52E6) (mouse, UniProt P86176 26-143, limits assumed)
T2 construct: Bought protein
T2 sequence (looked up): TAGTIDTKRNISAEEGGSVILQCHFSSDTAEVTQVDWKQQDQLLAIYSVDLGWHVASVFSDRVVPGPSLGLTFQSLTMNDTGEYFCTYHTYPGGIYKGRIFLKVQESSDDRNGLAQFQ


Experiments:
[1] = biological target: T1, Human TIGIT expressed on the surface of …; assay: cell-based or functional assay
[2] = biological target: T1, Human TIGIT expressed on the surface of …; assay: cell-based or functional assay; remark: listed apart in the source
[3] = biological target: T2, Mouse TIGIT-his (ACRO, TIT-M52E6); assay: BLI (ForteBio), CHO-expressed antibody loaded on AHQ sensor
Procedure: The sensor with loaded antibodies was exposed to 100 nM TIGIT-his antigens until to a plateau, and then transferred to an assay buffer for dissociation for at least 2 min to measure the dissociation rate. Kinetic analysis was performed using a 1:1 binding model.

[4] = biological target: T1, Human TIGIT expressed on the surface of …; assay: flow cytometry on CHOS cells expressing human TIGIT; reference antibody
[5] = biological target: T1, Human TIGIT expressed on the surface of …; assay: flow cytometry on CHO cells overexpressing human TIGIT; reference antibody in the run with CHO-expressed antibodies
[6] = biological target: T1, Human TIGIT expressed on the surface of …; assay: flow cytometry competition against 50 nM human CD155-mouse IgG2a Fc on CHOS cells expressing human TIGIT; positive control
[7] = biological target: T1, Human TIGIT expressed on the surface of …; assay: as above; remark: listed apart in the source

Binder	EC50, MOA-based assay (luciferase reporter under IL2 promoter), yeast-expressed antibody [1]	EC50, MOA-based assay (luciferase reporter under IL2 promoter), CHO-expressed antibody [2]	other results
ADI-27243 (antibody, human IgG4 S228P, kappa, F234A L235A, V domains shown) VH: QLQLQESGPGLVKPSETLSLTCTVSGGSISSSRYYWGWIRQPPGKGLEWIGSIYYSGSTYYNPSLKSRVTISVDTSKNQFSLKLSSVTAADTAVYYCARDGLYHTPEYFQHWGQGTLVTVSS VL: EIVLTQSPATLSLSPGERATLSCRASQSVSSYLAWYQQKPGQAPRLLIYDASNRATGIPARFSGSGSGTDFTLTISSLEPEDFAVYYCQQRFAFPYTFGGGTKVEIKR	297 nM		
ADI-30306 (antibody, human IgG4 S228P, kappa, F234A L235A, V domains shown, Intact antibody, expressed in yeast and also in CHO cells (the assay field says which)) VH: QLQLQESGPGLVKPSETLSLTCTVSGGSISSSLYYWGWIRQPPGKGLEWIGSIYYSGSTFYNPSFKSRVTISVDTSKNQFSLKLSSVTAADTAVYYCAREAGRGTTGLLFDYWGQGTLVTVSS VL: DIQMTQSPSTLSASVGDRVTITCRASQSISSWLAWYQQKPGKAPKLLIYKASSLESGVPSRFSGSGSGTEFTLTISSLQPDDFATYYCQQYGILPRTFGGGTKVEIKR			binding result [3]: no binding (tested: 100 nM TIGIT-his)
ADI-30272 (antibody, human IgG4 S228P, kappa, F234A L235A, V domains shown) VH: QVQLVQSGAEVKKPGASVKVSCKASGYTFTEYYMHWVRQAPGQGLEWMGIISPSAGSTSYAQKFQGRVTMTRDTSTSTVYMELSSLRSEDTAVYYCARDHDIAAAGRLADYWGQGTLVTVSS VL: DIQMTQSPSSVSASVGDRVTITCRASQGISSWLAWYQQKPGKAPKLLISAASSLQSGVPSRFSGSGSGTDFTLTISSLQPEDFATYYCQQAVILPITFGGGTKVEIKR	1.49 nM		
ADI-27297 (antibody, human IgG4 S228P, kappa, F234A L235A, V domains shown) VH: QVQLVQSGAEVKKPGASVKVSCKASGYTFTSYYMHWVRQAPGQGLEWMGIINPSGGSTSYAQKFQGRVTMTRDTSTSTVYMELSSLRSEDTAVYYCARDHDIAAAGRLADYWGQGTLVTVSS VL: DIQMTQSPSSVSASVGDRVTITCRASQGISSWLAWYQQKPGKAPKLLISAASSLQSGVPSRFSGSGSGTDFTLTISSLQPEDFATYYCQQAVILPITFGGGTKVEIKR	~25100 nM		
ADI-30286 (antibody, human IgG4 S228P, kappa, F234A L235A, V domains shown) VH: EVQLLESGGGLVQPGGSLRLSCAASGFTFGPYGMSWVRQAPGKGLEWVSAISGSGASTWYADSVKGRFTISRDNSKNTLYLQMNSLRAEDTAVYYCAKDPGTHYSGYYYIWRYWGQGTLVTVSS VL: EIVMTQSPATLSVSPGERATLSCRASQSVSSNLAWYQQKPGQAPRLLIYSASTRATGIPARFSGSGSGTEFTLTISSLQSEDFAVYYCQQYVPHPPFTFGGGTKVEIKR		0.396 nM	
ADI-27238 (antibody, human IgG4 S228P, kappa, F234A L235A, V domains shown) VH: QVQLVQSGAEVKKPGASVKVSCKASGYTFTSYYMSWVRQAPGQGLEWMGIINPSGGSTSYAQKFQGRVTMTRDTSTSTVYMELSSLRSEDTAVYYCARARYPSSWPYGMDVWGQGTTVTVSS VL: DIQMTQSPSSLSASVGDRVTITCRASQSINSYLNWYQQKPGKAPKLLIYAASSLQSGVPSRFSGSGSGTDFTLTISSLQPEDFATYYCQQSLLTPFTFGGGTKVEIKR	68.7 nM		
ADI-30267 (antibody, human IgG4 S228P, kappa, F234A L235A, V domains shown) VH: QVQLVQSGAEVKKPGASVKVSCKASGYTFRSYYMSWVRQAPGQGLEWMGIIDPSGGRTSFAQKFQGRVTMTRDTSTSTVYMELSSLRSEDTAVYYCARARYPESWPYGMDVWGQGTTVTVSS VL: DIQMTQSPSSLSASVGDRVTITCRASQSINSYLNWYQQKPGKAPKLLIYAASSLQSGVPSRFSGSGSGTDFTLTISSLQPEDFATYYCQQSLLTPFTFGGGTKVEIKR	2.06 nM		
ADI-30293 (antibody, human IgG4 S228P, kappa, F234A L235A, V domains shown) VH: EVQLVESGGGLVQPGGSLRLSCAASGFTFSSYSMNWVRQAPGKGLEWVSYISSSGTINYADSVKGRFTISRDNAKNSLYLQMNSLRAEDTAVYYCARHRIADSPSRAFDIWGQGTMVTVSS VL: not shown	1.56 nM	1.62 nM	
10A7 (anti-human TIGIT reference antibody from Genentech) (antibody, V domains shown) VH: EVQLVESGGGLTQPGKSLKLSCEASGFTFSSFTMHWVRQSPGKGLEWVAFIRSGSGIVFYADAVRGRFTISRDNAKNLLFLQMNDLKSEDTAMYYCARRPLGHNTFDSWGQGTLVTVSS VL: DIVMTQSPSSLAVSPGEKVTMTCKSSQSLYYSGVKENLLAWYQQKPGQSPKLLIYYASIRFTGVPDRFTGSGSGTDYTLTITSVQAEDMGQYFCQQGINNPLTFGDGTKLEIKR			EC50, MOA-based assay (luciferase reporter under IL2 promoter) [1]: ~77.8 nM; EC50 [4]: 0.269 nM; EC50 [5]: 0.195 nM; IC50 [6]: 0.741 nM; IC50 [7]: 0.325 nM

More lines, main results first:

EC50, MOA-based assay (luciferase reporter under IL2 promoter), yeast-expressed antibody [1]	EC50, MOA-based assay (luciferase reporter under IL2 promoter), CHO-expressed antibody [2]	Binder	other results
0.983 nM		ADI-30302 (antibody, human IgG4 S228P, kappa, F234A L235A, V domains shown) VH: QLQLQESGPGLVKPSETLSLTCTVSGGSIGSSQYYWGWIRQPPGKGLEWIGSIYRSGGTYYNPSLKSRVTISVDTSKNQFSLKLSSVTAADTAVYYCARDGLYHTPEYFQHWGQGTLVTVSS VL: EIVLTQSPATLSLSPGERATLSCRASQSVSSYLAWYQQKPGQAPRLLIYDASNRATGIPARFSGSGSGTDFTLTISSLEPEDFAVYYCQQRFAFPYTFGGGTKVEIKR	
3.33 nM	1.27 nM	ADI-30336 (antibody, human IgG4 S228P, kappa, F234A L235A, V domains shown, Intact antibody, expressed in yeast and also in CHO cells (the assay field says which)) VH: QLQLQESGPGLVKPSETLSLTCTVSGGSISSSRYYWGWIRQPPGKGLEWIGSIYYSGSTYYNPSLKSRVTISVDTSKNQFSLKLSSVTAADTAVYYCARDGLYHTPEYFQHWGQGTLVTVSS VL: EIVLTQSPATLSLSPGERATLSCRASQSVSSYLAWYQQKPGQAPRLLIYDASNRATGIPARFSGSGSGTDFTLTISSLEPEDFAVYYCQQRFAHPYTFGGGTKVEIKR	binding result [3]: no binding (tested: 100 nM TIGIT-his)
1.82 nM		ADI-30311 (antibody, human IgG4 S228P, kappa, F234A L235A, V domains shown) VH: QLQLQESGPGLVKPSETLSLTCTVSGGSIASSVYYWGWIRQPPGKGLEWIGSIYYSGSTWYNPSLKSRVTISVDTSKNQFSLKLSSVTAADTAVYYCAREAGRTGTGLLFDYWGQGTLVTVSS VL: DIQMTQSPSTLSASVGDRVTITCRASQSISSWLAWYQQKPGKAPKLLIYKASSLESGVPSRFSGSGSGTEFTLTISSLQPDDFATYYCQQYGILPRTFGGGTKVEIKR	
0.523 nM	0.186 nM	ADI-30278 (antibody, human IgG4 S228P, kappa, F234A L235A, V domains shown, Intact antibody, expressed in yeast and also in CHO cells (the assay field says which)) VH: QVQLVQSGAEVKKPGASVKVSCKASGYTFTEYYMHWVRQAPGQGLEWMGIISPSAGSTKYAQKFQGRVTMTRDTSTSTVYMELSSLRSEDTAVYYCARDHDIRLAGRLADYWGQGTLVTVSS VL: DIQMTQSPSSVSASVGDRVTITCRASQGISSWLAWYQQKPGKAPKLLISAASSLQSGVPSRFSGSGSGTDFTLTISSLQPEDFATYYCQQAVILPITFGGGTKVEIKR	binding result [3]: no binding (tested: 100 nM TIGIT-his)
	0.384 nM	ADI-30288 (antibody, human IgG4 S228P, kappa, F234A L235A, V domains shown) VH: EVQLLESGGGLVQPGGSLRLSCAASGFTFGPYGMSWVRQAPGKGLEWVSAISGSGASTWHADSVKGRFTISRDNSKNTLYLQMNSLRAEDTAVYYCAKDPGTDSTGYYYIWRYWGQGTLVTVSS VL: EIVMTQSPATLSVSPGERATLSCRASQSVSSNLAWYQQKPGQAPRLLIYSASTRATGIPARFSGSGSGTEFTLTISSLQSEDFAVYYCQQYVPHPPFTFGGGTKVEIKR	
1.22 nM	0.506 nM	ADI-30268 (antibody, human IgG4 S228P, kappa, F234A L235A, V domains shown) VH: QVQLVQSGAEVKKPGASVKVSCKASGYTFGSYYMGWVRQAPGQGLEWMGIIDPSGGRTSYARKFQGRVTMTRDTSTSTVYMELSSLRSEDTAVYYCARARTPSSWPYGMDVWGQGTTVTVSS VL: DIQMTQSPSSLSASVGDRVTITCRASQSINSYLNWYQQKPGKAPKLLIYAASSLQSGVPSRFSGSGSGTDFTLTISSLQPEDFATYYCQQSLLTPFTFGGGTKVEIKR	
1.09 nM		ADI-30296 (antibody, human IgG4 S228P, kappa, F234A L235A, V domains shown) VH: EVQLVESGGGLVQPGGSLRLSCAASGFTIGGYSMNWVRQAPGKGLEWVSYISSSSTIHYADSVKGRFTISRDNAKNSLYLQMNSLRAEDTAVYYCARHRIGRSPSRAFDIWGQGTMVTVSS VL: not shown	

Source: patent US20210040201A1 (Innovent, published 2021)
